Data as given in patent US20240301062A1 (BEIGENE SWITZERLAND, published 2024).
Where two headings read alike, the source gives them in different places.

Experiments:
[1] = target: T1, Human CDεγ (recombinant human CD3εγ) (human, UniProt P07766 23-126; P09693 23-116); assay: SPR, recombinant protein
T1 construct: Printed as CDεγ; read as CD3εγ
Protocol: (§1) The binding kinetics of CLDN6×CD3 BsAb BG143P were measured using SPR. SPR was used to measure the on-rate constant (kₐ) and off-rate constant (kd) of the antibodies to recombinant proteins of CDεγ and then determined the affinity constant (KD).

[2] = target: T2, Cyno CDεγ (recombinant cynomolgus CD3εγ) (cyno, UniProt Q95LI5 22-117; Q95LI7 23-113); assay: SPR, recombinant protein
T2 construct: Printed as CDεγ; read as CD3εγ
T2 sequence (looked up) 1: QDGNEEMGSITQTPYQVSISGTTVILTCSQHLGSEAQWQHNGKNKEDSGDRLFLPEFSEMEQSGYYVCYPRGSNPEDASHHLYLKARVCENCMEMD
T2 sequence (looked up) 2: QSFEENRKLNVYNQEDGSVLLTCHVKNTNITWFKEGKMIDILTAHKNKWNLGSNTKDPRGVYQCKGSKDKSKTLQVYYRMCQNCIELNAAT
Protocol: as §1

[3] = target: T3, human native CD3 on live cells (HuT78, Jurkat) (human, UniProt P07766 23-207; P09693 23-182; P04234 22-171); assay: FACS, CD3-expressing Jurkat cells
T3 construct: whole, on cells; also called human CD3
T3 sequence (P07766 23-207, chain 1 of 3): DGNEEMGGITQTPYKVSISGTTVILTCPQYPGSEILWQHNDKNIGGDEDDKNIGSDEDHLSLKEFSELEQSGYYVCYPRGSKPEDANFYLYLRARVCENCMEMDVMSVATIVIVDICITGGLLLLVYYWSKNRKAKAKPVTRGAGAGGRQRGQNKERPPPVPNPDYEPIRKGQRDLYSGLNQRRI
T3 sequence (P09693 23-182, chain 2 of 3): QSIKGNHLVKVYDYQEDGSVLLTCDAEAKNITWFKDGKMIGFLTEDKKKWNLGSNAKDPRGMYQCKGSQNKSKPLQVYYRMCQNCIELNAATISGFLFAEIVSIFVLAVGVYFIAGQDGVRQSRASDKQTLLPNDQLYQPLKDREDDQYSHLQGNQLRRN
T3 sequence (P04234 22-171, chain 3 of 3): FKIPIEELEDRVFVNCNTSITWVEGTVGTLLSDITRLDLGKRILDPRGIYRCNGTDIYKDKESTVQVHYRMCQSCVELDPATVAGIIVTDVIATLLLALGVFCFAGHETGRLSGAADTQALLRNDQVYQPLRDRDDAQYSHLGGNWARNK

human claudin 6 (CLDN6) [4] = target: T4, human claudin 6 (CLDN6) (human, UniProt P56747 1-220); assay: FACS, CLDN6-expressing PA-1 cells
T4 construct: also called human CLDN6; hCLDN6
T4 sequence: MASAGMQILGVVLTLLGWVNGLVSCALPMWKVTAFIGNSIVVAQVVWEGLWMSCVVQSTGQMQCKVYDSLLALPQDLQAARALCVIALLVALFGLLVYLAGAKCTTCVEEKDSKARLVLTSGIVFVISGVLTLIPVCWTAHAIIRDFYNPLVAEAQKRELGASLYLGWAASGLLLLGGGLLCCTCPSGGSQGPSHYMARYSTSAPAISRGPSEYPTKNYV

human claudin 9 (CLDN9) [5] = target: T5, human claudin 9 (CLDN9) (human, UniProt O95484 1-217); assay: flow cytometry on NCI-H1299 cells stably expressing human CLDN9, anti-human Fc gamma secondary, MFI (AF647) [right panel]
T5 construct: also called human CLDN9
T5 sequence: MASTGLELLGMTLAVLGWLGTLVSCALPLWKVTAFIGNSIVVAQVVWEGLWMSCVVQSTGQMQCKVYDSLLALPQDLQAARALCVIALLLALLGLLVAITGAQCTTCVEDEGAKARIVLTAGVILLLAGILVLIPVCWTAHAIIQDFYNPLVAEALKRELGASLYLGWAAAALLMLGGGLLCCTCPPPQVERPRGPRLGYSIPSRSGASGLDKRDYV
Protocol: Expressing vectors of human CLDN6 and CLDN9 were established by inserting synthesized cDNA coding corresponding sequences into mammalian expression vector. NCI-H1299 stable cells expressing human CLDN6 and CLDN9 were generated by transfection of corresponding plasmids. Cells were suspended at a concentration of 1×10⁶ cells in FACS buffer (2% FBS, 1×PBS), and the cell suspension was dispensed into a U-bottom 96-well plate ([…]). Antibody was added thereto at final top concentration of 100 nM and 2× dilute for 11 dilutions, then mixed with cells and incubated at 4° C. for 1 hour. After centrifugation, the reaction solution was removed, and the cells were washed twice with 200 μL/well FACS buffer. Then, APC-anti human Fcγ was diluted 500-fold with FACS buffer and added as secondary antibodies to the cells. The cells were incubated at 4° C. for 30 mins, then washed twice as above, and suspended in 100 μL FACS buffer. The cell suspension was subjected to flow cytometry.

CD3ε (SPR analyte) = CD3ε (SPR analyte) (UniProt P07766 23-126, limits assumed); assay: SPR, scFv-Fc
CD3ε (SPR analyte), sequence (P07766 23-126 limits assumed): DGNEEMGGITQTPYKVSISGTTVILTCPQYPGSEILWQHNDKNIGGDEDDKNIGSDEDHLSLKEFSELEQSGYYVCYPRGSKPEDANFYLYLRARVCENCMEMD

[6] = target: T3, human native CD3 on live cells (HuT78, …); assay: FACS, HuT78 cells, Test 2
Protocol: (§2) For affinity determination, antibodies were captured by anti-human Fc surface, and used in the affinity-assay based on surface plasmon resonance (SPR) technology. The binding activity of humanized sp34 to bind native CD3 on live cells was evaluated using HuT78 cells in a FACS based assay. Live HuT78 cells were seeded in 96-well plate, and were incubated with a series of dilutions of chimeric or humanized sp34. Mouse anti-Human IgG was used as second antibody to detect antibody binding to the cell surface. EC50 values for dose-dependent binding to human native CD3 were determined by fitting the dose-response data to the four-parameter logistic model with GraphPad Prism.

[7] = target: T3, human native CD3 on live cells (HuT78, …); assay: FACS, HuT78 cells, Test 3
Protocol: as §2

[8] = target: T3, human native CD3 on live cells (HuT78, …); assay: flow cytometry on live HuT78 cells, mouse anti-human IgG secondary, MFI
Protocol: as §2

[9] = target: T3, human native CD3 on live cells (HuT78, …); assay: as above; remark: listed apart in the source
Protocol: as §2

human claudin 9 (CLDN9) [10] = target: T5, human claudin 9 (CLDN9); assay: flow cytometry, CHOK1/human CLDN9-GFP cells
cyno CLDN6 = target: T6, cyno CLDN6 (cyno); assay: flow cytometry, CHOK1/Cyno CLDN6-GFP cells
T6 construct: whole, on cells; also called cynomolgus CLDN6

human claudin 6 (CLDN6) [11] = target: T4, human claudin 6 (CLDN6); assay: flow cytometry, CHOK1/human CLDN6-GFP cells
mouse CLDN6 = target: T7, mouse CLDN6 (mouse, UniProt Q9Z262 1-219); assay: flow cytometry, CHOK1/mouse CLDN6-GFP cells
T7 construct: whole, on cells
T7 sequence (looked up): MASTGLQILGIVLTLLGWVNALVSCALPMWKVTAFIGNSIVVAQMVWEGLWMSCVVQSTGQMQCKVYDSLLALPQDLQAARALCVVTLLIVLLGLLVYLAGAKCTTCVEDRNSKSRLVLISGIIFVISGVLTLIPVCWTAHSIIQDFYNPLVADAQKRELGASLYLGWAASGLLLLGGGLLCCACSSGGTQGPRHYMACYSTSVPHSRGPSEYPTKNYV

human claudin 6 (CLDN6) [12] = target: T4, human claudin 6 (CLDN6); assay: flow cytometry, PA-1 cells (endogenous CLDN6)

T1 sequence (P07766 23-126, chain 1 of 2): as the sequence (P07766 23-126 limits assumed) above
T1 sequence (P09693 23-116, chain 2 of 2): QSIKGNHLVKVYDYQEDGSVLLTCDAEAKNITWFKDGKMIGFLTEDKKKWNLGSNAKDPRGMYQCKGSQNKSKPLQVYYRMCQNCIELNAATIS

B1: CLDN6xCD3 BsAb BG143P (bispecific antibody, human IgG1, kappa)
chain: EVQLVESGGGLVQPGGSLRLSCAASGFTFSTYAMNWVRQAPGKGLEWVGRIRSKYNNYATYYADSVKGRFTISRDDAKNSLYLQMNSLRAEDTAVYYCVRHGNFGSSYVSWFAYWGQGTLVTVSSGGGGSGGGGSGGGGSEIVVTQSPATLSVSPGERATLSCRSSTGAVTTSNYANWVQQKPGQAPRGLIGGTNKRAPGIPARFSGSLSGDEATLTISSLQSEDFAVYYCALWYSNLWVFGGGTKVEIKEPKSSDKTHTCPPCPAPPAAGPSVFLFPPKPKDTLMISRTPEVTCVVVDVSHEDPEVKFNWYVDGVEVHNAKTKPREEQYNSTYRVVSVLTVLHQDWLNGKEYKCKVSNKALAAPIEKTISKAKGQPREPQVYTLPPSRDELTKNQVSLWCLVKGFYPSDIAVEWESNGQPENNYKTTPPVLDSDGSFFLYSKLTVDKSRWQQGNVFSCSVMHEALHNHYTQKSLSLSPGK
heavy: EVQLQESGGGLVQPGGSLRLSCAASGYSFSDYHINWVRQAPGKGLEWVGYIYPGSGHTKYNEKFKGRFTISRDTSSNTAYLQMNSLRAEDTAVYYCARSGIYHYVSSYYFDHWGQGTLVTVSSASTKGPSVFPLAPSSKSTSGGTAALGCLVKDYFPEPVTVSWNSGALTSGVHTFPAVLQSSGLYSLSSVVTVPSSSLGTQTYICNVNHKPSNTKVDKKVEPKSCDKTHTCPPCPAPPAAGPSVFLFPPKPKDTLMISRTPEVTCVVVDVSHEDPEVKFNWYVDGVEVHNAKTKPREEQYNSTYRVVSVLTVLHQDWLNGKEYKCKVSNKALAAPIEKTISKAKGQPREPQVYTLPPSRDELTKNQVSLSCAVKGFYPSDIAVEWESNGQPENNYKTTPPVLDSDGSFFLVSKLTVDKSRWQQGNVFSCSVMHEALHNHYTQKSLSLSPGK
light: DIQMTQSPSSLSASVGDRVTITCKASQDAGSAVAWYQQKPGKAPKLLIYWASTRHTGVPSRFSGSGSGTDFTLTISSLQPEDFATYYCQQYSSYTFGGGTKLEIKRTVAAPSVFIFPPSDEQLKSGTASVVCLLNNFYPREAKVQWKVDNALQSGNSQESVTEQDSKDSTYSLSSTLTLSKADYEKHKVYACEVTHQGLSSPVTKSFNRGEC
notes: module ratio 1:1, Fc null huIgG1, knob into hole; also called CLDN6×CD3 BsAb; CLDN6×CD3 antibody
Kd [1]: 8.31 nM
koff [1]: 0.0181 s⁻¹
kon [1]: 2.17e+06 M⁻¹ s⁻¹
Kd [2]: 4.55 nM
koff [2]: 0.00599 s⁻¹
kon [2]: 1.32e+06 M⁻¹ s⁻¹
EC50 [3]: 6.98 nM
EC50 (human claudin 6 (CLDN6) [4]): 81.3 nM
binding result (human claudin 9 (CLDN9) [5]): no binding (tested: 100 nM)

B2: humanized scFv BG563P (scFv-Fc) (Fc fusion)
scFv: EVQLVESGGGLVQPGGSLRLSCAASGFTFNTYAMNWVRQAPGKGLEWVGRIRSKYNNYATYYADSVKGRFTISRDDAKNSLYLQMNSLRAEDTAVYYCVRHGNFGNSYVSWFAYWGQGTLVTVSSGGGGSGGGGSGGGGSEIVVTQSPATLSVSPGERATLSCRSSTGAVTTSNYANWVQQKPGQAPRGLIGGTNKRAPGIPARFSGSLSGDEATLTISSLQSEDFAVYYCALWYSNLWVFGGGTKVEIK
notes: BG561P with L4V in VL and A49G, D65G in VH; not shown: human IgG1 Fc region, scFv fused to its N-terminus
Kd (CD3ε (SPR analyte)): 1.57 nM
koff (CD3ε (SPR analyte)): 0.000772 s⁻¹
kon (CD3ε (SPR analyte)): 493000 M⁻¹ s⁻¹
EC50 [6]: 0.94 nM
EC50 [7]: 0.94 nM
EC50 (read off the curve) [8]: ~0.1 µg/mL
EC50 (read off the curve) [9]: ~0.1 µg/mL

B3: BG87P (mouse anti-CLDN6 antibody, hybridoma clone) (antibody, V domains shown)
VH: QIQLQQSGPELVKPGASVKISCKASGYSFTDYHINWVKQRPGQGLEWIGWIYPGSGYTKYNEKFKVKATLTVDTSSSTAYMHLTSLTSEDSAVYFCARSGIYHYVSSYYFDHWGQGTTLTVSS
VL: DIVMTQSHTFMSTSVGDRVSITCKASQDVGTAVAWYQQKPGQSPKLLIYWASTRHTGVPDRFTGSGSGTDFTLTISNVQSEDLADYFCQQYSSYTFGGGTKLEIK
notes: Mouse antibody purified from hybridoma supernatant on protein A; also called clone BG87P
binding result (human claudin 9 (CLDN9) [10]): no binding
EC50 (cyno CLDN6): 6.08 nM
EC50 (human claudin 6 (CLDN6) [11]): 3.41 nM
EC50 (mouse CLDN6): 94.7 nM
EC50 (human claudin 6 (CLDN6) [12]): 3.38 nM
